Laboratory results taken from publication PMC4635203.

T1: LUZ24 gp4 (Mip) (Pseudomonas phage LUZ24) (UniProt A9J6U1)
T1 sequence: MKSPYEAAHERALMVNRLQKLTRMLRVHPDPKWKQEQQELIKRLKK

T2: MvaT-His (Pseudomonas aeruginosa (PAO1?)) (UniProt Q9HW86)
T2 sequence: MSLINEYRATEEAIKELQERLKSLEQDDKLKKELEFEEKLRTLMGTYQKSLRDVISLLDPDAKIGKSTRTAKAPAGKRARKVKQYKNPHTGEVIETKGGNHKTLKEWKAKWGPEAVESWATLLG


Experiments:
[1] = target: T1, LUZ24 gp4 (Mip) (Pseudomonas phage LUZ24); assay: EMSA
[2] = target: T2, MvaT-His (Pseudomonas aeruginosa (PAO1?)); assay: EMSA
[3] = target: LUZ24 gp4 (yeast two-hybrid bait) (Pseudomonas aeruginosa phage LUZ24); assay: two-hybrid; alpha-galactosidase activity of the yeast two-hybrid pairs, in milliunits per ml per cell, for a relative comparison of interaction strengths

Row | Molecule | binding [1] | binding [2] | α-Gal activity (milliunits per ml per cell) [3]
1 | CATGAGGCCAGGACGTTGTTCATGAAAACCGAATAATCGTTTCGAATGATGGTTTGCAATTATTAATGTCGAATGGAATGAATGTGCCATATCTCCATAAATAAAAAGGAAGTTTGTCCAATACTTGAGAAACTACTTTAAGAAGGTTTTGTCGGTAGAAAGCGATCAATC (double strand) [ptxS upstream region 150 bp] | no binding | binds | 
2 | MvaT (PA4315) prey fragment, amino acids 1-80 (domain or fragment) MSLINEYRATEEAIKELQERLKSLEQDDKLKKELEFEEKLRTLMGTYQKSLRDVISLLDPDAKIGKSTRTAKAPAGKRAR |  |  | 23.1
